Residue numbers refer to the chain shown, from its start.
How the values were obtained:
hPD-1-His = molecular target: T1, hPD-1-His (human, UniProt Q15116 25-170, limits assumed); assay: ELISA: shPD-1-his coated, detection goat anti-human Fc-gamma-HRP 1:10000, chemiluminescence RLU
T1 construct: also called His-tagged soluble human PD-1; shPD-1
Text: (§1) FIGS. 8A-8D show the results of ELISA studies measuring the binding of serially diluted binding molecules to human CTLA-4 and human PD-1. […] Goat anti-human-Fc-HRP (1:10,000) was employed as the secondary detection molecule to detect binding. FIGS. 8C-8D show the results of a study on the effect of altering orientations and binding domains on binding. […] Goat anti-human-Fcγ-HRP was employed as the secondary detection molecule to detect binding using PICO chemiluminescent substrate.

soluble hCTLA-4-Avi-His = molecular target: T2, soluble hCTLA-4-Avi-His (human, UniProt P16410 36-161); assay: ELISA: shCTLA-4-Avi-His coated at 1 ug/mL, detection goat anti-human Fc-gamma-HRP 1:10000, chemiluminescence RLU
T2 construct: also called soluble human CTLA-4-Avi-His
T2 sequence: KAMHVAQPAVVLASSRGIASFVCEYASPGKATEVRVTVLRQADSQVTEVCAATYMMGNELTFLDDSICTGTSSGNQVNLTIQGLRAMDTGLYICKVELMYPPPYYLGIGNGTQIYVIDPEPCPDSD
Text: as §1

[1] = molecular target: T3, His-tagged soluble cynomolgus monkey CTLA-4 (cynomolgus monkey); assay: BIACORE, His-tagged soluble cyno CTLA-4 captured on anti-PentaHis, binder passed over at 12.5-200 nM; avidity by separate ka/kd 1:1 fit
T3 construct: extracellular domain; also called Cyno CTLA-4
Experimental: Briefly, His-tagged soluble CTLA-4 (an extracellular portion of human or cynomolgus monkey CTLA-4 fused to a histidine-containing peptide) was captured on immobilized anti-PentaHis and then different concentrations (12.5-200 nM) of the CTLA-4 binding molecules were passed over the immobilized CTLA-4 proteins. The kinetics of binding were determined via BIACORE® analysis (affinity by 1:1 Langmuir binding model (simultaneous ka/kd); or avidity by separate ka/kd 1:1 fit).

T1 sequence (Q15116 25-170 limits assumed): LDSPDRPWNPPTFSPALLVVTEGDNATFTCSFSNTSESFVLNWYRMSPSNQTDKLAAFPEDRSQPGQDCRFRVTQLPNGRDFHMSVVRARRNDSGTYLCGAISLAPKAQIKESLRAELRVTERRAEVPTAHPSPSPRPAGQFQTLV

B1: DART B (bispecific antibody)
chain 1: not shown
chain 2: EIVLTQSPATLSLSPGERATLSCRASESVDNYGMSFMNWFQQKPGQPPKLLIHAASNQGSGVPSRFSGSGSGTDFTLTISSLEPEDFAVYFCQQSKEVPYTFGGGTKVEIKGGGSGGGGQVQLVESGGGVVQPGRSLRLSCAASGFTFSSYTMHWVRQAPGKGLEWVTFISYDGNNKYYADSVKGRFTISRDNSKNTLYLQMNSLRAEDTAIYYCARTGWLGPFDYWGQGTLVTVSSGGCGGGKVAACKEKVAALKEKVAALKEKVAALKE
notes: Four-chain Fc diabody, PD-1 mAb 6-ISQ x CTLA-4 mAb 1, IgG4 (YTE), E/K-coils; two sites for PD-1 and two for CTLA-4
- EC50 (read off the curve) (hPD-1-His): ~0.5 nM

B2: DART C (bispecific antibody)
chain 1: not shown
chain 2: B1 chain 2 with N175S, Y178H, I189V
notes: Four-chain Fc diabody, CTLA-4 mAb 3 x PD-1 mAb 6-ISQ, IgG4 Fc, E/K-coils
- EC50 (read off the curve) (soluble hCTLA-4-Avi-His): ~0.4 nM
- EC50 (read off the curve) (hPD-1-His): ~0.5 nM

B3: CTLA-4 mAb 1 (antibody, IgG1, V domains shown)
VH: QVQLVESGGGVVQPGRSLRLSCAASGFTFSSYTMHWVRQAPGKGLEWVTFISYDGNNKYYADSVKGRFTISRDNSKNTLYLQMNSLRAEDTAIYYCARTGWLGPFDYWGQGTLVTVSS
VL: not shown
notes: IgG1, natural antibody structure; also called ipilimumab replica
- Kd [1]: 1.3 nM
